Consider seven molecules from patent WO2015129919A1 (dated 2015).

For test [1], the target named is T1, SLC6A6 (solute carrier family 6 (neurotransmitter transporter, taurine), member 6), human, native on the cell … (human, UniProt P31641 1-620).
T1 construct: also called native SLC6A6; taurine transporter
T1 sequence: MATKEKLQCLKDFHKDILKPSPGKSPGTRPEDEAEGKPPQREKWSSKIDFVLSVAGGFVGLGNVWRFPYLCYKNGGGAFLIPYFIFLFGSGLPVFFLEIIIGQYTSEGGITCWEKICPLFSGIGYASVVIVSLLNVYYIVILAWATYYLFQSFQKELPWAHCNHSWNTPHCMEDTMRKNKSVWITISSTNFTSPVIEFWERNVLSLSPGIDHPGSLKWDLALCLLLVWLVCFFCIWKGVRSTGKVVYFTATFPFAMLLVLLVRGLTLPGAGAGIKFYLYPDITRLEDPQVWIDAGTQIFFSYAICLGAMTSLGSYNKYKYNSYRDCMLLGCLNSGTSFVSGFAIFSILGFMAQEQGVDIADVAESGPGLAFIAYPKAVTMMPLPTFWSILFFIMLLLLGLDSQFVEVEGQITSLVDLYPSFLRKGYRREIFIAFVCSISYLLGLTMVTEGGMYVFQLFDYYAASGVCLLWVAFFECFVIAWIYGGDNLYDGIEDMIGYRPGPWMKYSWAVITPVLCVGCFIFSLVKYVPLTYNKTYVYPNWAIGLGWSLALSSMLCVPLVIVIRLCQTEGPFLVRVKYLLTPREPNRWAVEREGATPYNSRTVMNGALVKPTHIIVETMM
The experiment in a line: flow cytometry on HCT116 cells. (In general: Flow cytometry measures light scatter and fluorescence of single cells or particles in a stream.)

Test [2] deals with T1, SLC6A6 (solute carrier family 6 …). The test can be described thus: flow cytometry on 293T cells (express SLC6A6), antibody 10 ug/mL.
Test [3] concerns the target T2, SLC6A6 extracellular region partial protein (E. coli recombinant, amino acid residues 143 to 216, C-terminal … (human, UniProt P31641 143-216)).
T2 construct: also called partial protein of the extracellular region of SLC6A6; SLC6A6 partial protein for screening
T2 sequence: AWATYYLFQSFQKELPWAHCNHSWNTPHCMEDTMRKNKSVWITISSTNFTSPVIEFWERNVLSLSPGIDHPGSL
The test can be described thus: competition inhibition test; 402 at 10 ug/mL pre-incubated with recombinant SLC6A6 extracellular region partial protein at 15 ug/mL, read out by immunofluorescence on HCT116 cells.

In test [4] the target is T1, SLC6A6 (solute carrier family 6 …). The experiment in a line: immunohistochemistry on breast cancer and uterine cancer tissue sections.
The target is the same in test [5]. The test can be described thus: flow cytometry on HCT116 cells, antibody 10 ug/mL.

B1: monoclonal antibody produced by mouse-mouse hybridoma 303 (antibody, V domains shown)
VH: VQLQQPGAEFVKPGTSVKLSCKASGYNFTRYWINWVKLRPGQGLEWIGNIYPATNGINYNEKFKSKATLTVDTFSSTAYMQLSSLASEDSGLYYCARCKTMLSRCAWFPYWGQGTLVTVSA
VL: DIQMTQTTSSLSASLGDRVTINCRASQDISNYLNWYQQKPDGTVKLLIYDTSRLHSRVPSRFSGSGSGTDYSLTISNLEQEDIATYFCQQGNMLPWTFGGGTKLEIK
notes: Mouse IgG from the hybridoma
Regarding B1, the binding result in test [1] is on record as “binds”.

B2: monoclonal antibody produced by mouse-mouse hybridoma 419 (antibody, V domains shown)
VH: IQLQQSGPELVKPGASVKVSCKAFGYAFTRHNMYWVKQRHGKCLEWIGYIDPFNGGTSYNQKFKGKATLTVDKSSSTAYMHLNSLTSEDSAVYYCARVYGNYAWFAYWGQGTLVTVSA
VL: DIVMTQSHKFMSTSVGDRVSITCKASQDVSTAVAWYQQIPGQSPKLLIYSSSYRYTGVPDRFTGSGSGTDFTFTISSVQAEDLAVYYCQQHYNTPWTFGGGTKLEIK
notes: Mouse IgG from the hybridoma
B2: the binding result in test [2] is on record as “binds”.

B3: monoclonal antibody produced by mouse-mouse hybridoma 402 (antibody, V domains shown)
VH: VKLQQSGPELVKPGASVKVSCTASGYAFTQYNLYWVKLRHGKCPKWIGSIDPYIGGTTYNQQFKDKVTLTVDKSSSTAYLHLNSLTSEDSAIYYCARWWDGYFDVWGAGTTVTVSS
VL: QIVLTQSPAIMSASLGERVTLTCTASSSVISRYLHWYQVKPGSSPKLWIYSTSNLASGVPTRFSGSGSGTSYSLTISNMEAEDAATYYCHQYHRSPLTFGAGTKLELT
notes: Mouse IgG from the hybridoma
As to B3, the binding result in test [1] and in test [3] was “binds” each time.

B4: monoclonal antibody produced by mouse-mouse hybridoma 430 (antibody, V domains shown)
VH: IQLQQSGPEVVKPGTSVRVSCTASGYAFTQYNLYWVKLRHGKCPKWIGSIDPYIGGANYNQQFKDKVTLTVDKSSSTAYLHLNSLTSEDSAIYYCARWWDGYFDVWGAGTTVTVSS
VL: QIVLTQSPAIMSASLGERVTMTCTASSSVSFRYLHWYQVKPGSSPKLWIYSTSNLASGVPSRISGSGSGTSYFLTISNMEAEDAATYYCHQYHRSPLTFGAGTKLELT
notes: Mouse IgG from the hybridoma; also called antibody clone 430; 430 antibody
As for B4, the binding result in test [1] was “binds”.

B5: monoclonal antibody produced by mouse-mouse hybridoma 205 (antibody, V domains shown)
VH: VKLQQSGPELVKPGASVKMSCKASGYTFTSYVMHWVKQKPGQGLEWIGYINPYNDGTKYNEKFKGKATLTSDKSSSTAYMELSSLTSEDSAVYYCARRKAWFAYWGQGTLVTVSA
VL: DIQMTQSPASQSASLGESVTITCLASQTIGTWLAWYQQKPGKSPQLLIYAATSLADGVPSRFSGSGSGTKFSFKISSLQAEDFVSYYCQQLYSTPLTFGGGTKLEIK
notes: Mouse IgG from the hybridoma
Take B5: the binding result in test [4] is reported as “binds”.

B6: monoclonal antibody produced by mouse-mouse hybridoma 422 (antibody, V domains shown)
VH: VQLQQSGPEVVKPGPSLRMSCKASGYFFTGNSMNWVKKTHGRSLEWIGLIDLSNGETRFNQKFKGKATLTVDKSSGTAYMELLNLTSEDSAVYYCASRSAMIMPCFSHWGQGTLVTVSA
VL: DIVMTQSHNFMSTSIGDRVNITCKASQDVATAVAWFQQKPGQSPKLLIYWTSTRHTGVPDRFTGSGYGTDFTLTISHVQSEDLADYFCQQYDTYPYTFGGGTKLEIK
notes: Mouse IgG from the hybridoma; also called antibody clone 422
Consider B6, for which, in test [1], the binding result is listed as “binds”.

B7: antibody clone 402 human-mouse chimeric antibody (antibody, human IgG1, kappa, V domains shown)
VH: QVKLQQSGPELVKPGASVKVSCTASGYAFTQYNLYWVKLRHGKCPKWIGSIDPYIGGTTYNQQFKDKVTLTVDKSSSTAYLHLNSLTSEDSAIYYCARWWDGYFDVWGAGTTVTVSS
VL: QIVLTQSPAIMSASLGERVTLTCTASSSVISRYLHWYQVKPGSSPKLWIYSTSNLASGVPTRFSGSGSGTSYSLTISNMEAEDAATYYCHQYHRSPLTFGAGTKLELTR
notes: Human IgG1 heavy chain constant region and human kappa constant region, expressed in Expi293F cells; also called c402 mAb
B7: the binding result in test [5] is “binds”.
